Substrate: Nc1nc2c(ncn2[C@@H]2O[C@H](COP(=O)(O)OP(=O)(O)OP(=O)(O)O)[C@@H](O)[C@H]2O)c(=O)[nH]1
Assay: steady-state primer extension, denaturing PAGE
Type: biochemical, Pseudomonas aeruginosa
Settings: 200 nM primer/template DNA (Cy5P/T29(A)), misinsertion opposite template dA, 5 mM MnCl2, pH 7.5, 30 °C
Description: steady-state primer extension, denaturing PAGE on Pa-PolDom

B1: Pa-PolDom (Pseudomonas aeruginosa PAO1) (protein)
chain: GARKASAGASRAATAGVRISHPQRLIDPSIQASKLELAEFHARYADLLLRDLRERPVSLVRGPDGIGGELFFQKHAARLKIPGIVQLDPALDPGHPPLLQIRSAEALVGAVQMGSIEFHTWNASLANLERPDRFVLDLDPDPALPWKRMLEATQLSLTLLDELGLRAFLKTSGGKGMHLLVPLERRHGWDEVKDFAQAISQHLARLMPERFSAVSGPRNRVGKIFVDYLRNSRGASTVAAYSVRAREGLPVSVPVFREELDSLQGANQWNLRSLPQRLDELAGDDPWADYAGTRQRISAAMRRQLGRG
notes: polymerization domain, residues 533-840; Arg532 codon replaced by start Met; E. coli BL21(DE3)
Work on B1 yielded a Km of 1.211 ± 0.09 µM and a kcat of 0.92 ± 0.02 s⁻¹.

Source: paper PMC7072297, “Structural Determinants Responsible for the Preferential Insertion of Ribonucleotides by Bacterial NHEJ PolDom” (Biomolecules, 2020)
